Tested on: Escherichia coli TOP10
Assay: shrunken log2 fold change of peptide-encoding DNA abundance (4.5 h post-induction vs induction); higher = less antimicrobial activity (less host growth inhibition)
Details: time post-induction: 4.5 h; library: site-saturation at positions 5, 18, 19, 20
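Note: peptides expressed intracellularly from a pBAD plasmid library in pooled LB shake-flask culture, induced with 0.3% L-arabinose, DNA abundance read by NGS, three biological replicates, DESeq2 with apeglm shrinkage.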

Sequence	shrunken log2 fold change
RRIRIRPPRLPRPRPRPYYSPRP	-0.213
RRIRKRPPRLPRPRPRPAAAPRP	0.896
RRIRKRPPRLPRPRPRPAAEPRP	1.12
RRIRKRPPRLPRPRPRPAAFPRP	0.59
RRIRKRPPRLPRPRPRPACEPRP	0.168
RRIRKRPPRLPRPRPRPACFPRP	-0.0348
RRIRKRPPRLPRPRPRPACYPRP	0.13
RRIRKRPPRLPRPRPRPALLPRP	0.246
RRIRKRPPRLPRPRPRPALRPRP	0.455
RRIRKRPPRLPRPRPRPAMDPRP	0.231
RRIRKRPPRLPRPRPRPAMNPRP	-0.0724
RRIRKRPPRLPRPRPRPANEPRP	0.151
RRIRKRPPRLPRPRPRPANKPRP	0.142
RRIRKRPPRLPRPRPRPANMPRP	-0.167
RRIRKRPPRLPRPRPRPAPEPRP	1.26
RRIRKRPPRLPRPRPRPAPWPRP	0.82
RRIRKRPPRLPRPRPRPAPYPRP	0.212
RRIRKRPPRLPRPRPRPAQIPRP	0.342
RRIRKRPPRLPRPRPRPASQPRP	0.0905
RRIRKRPPRLPRPRPRPATCPRP	0.0272
RRIRKRPPRLPRPRPRPATRPRP	0.423
RRIRKRPPRLPRPRPRPAWPPRP	0.675
RRIRKRPPRLPRPRPRPAYKPRP	0.354
RRIRKRPPRLPRPRPRPAYNPRP	0.0771
RRIRKRPPRLPRPRPRPAYQPRP	0.0163

Sequence	shrunken log2 fold change
RRIRKRPPRLPRPRPRPCGFPRP	0.279
RRIRKRPPRLPRPRPRPCHGPRP	0.0847
RRIRKRPPRLPRPRPRPCICPRP	-0.14
RRIRKRPPRLPRPRPRPCIYPRP	-0.198
RRIRKRPPRLPRPRPRPCKDPRP	0.0741
RRIRKRPPRLPRPRPRPCKRPRP	-0.194
RRIRKRPPRLPRPRPRPCLRPRP	-0.081
RRIRKRPPRLPRPRPRPCMSPRP	-0.0865
RRIRKRPPRLPRPRPRPCPVPRP	-0.106
RRIRKRPPRLPRPRPRPCRTPRP	0.0438
RRIRKRPPRLPRPRPRPCTNPRP	-0.0404
RRIRKRPPRLPRPRPRPCVDPRP	0.268
RRIRKRPPRLPRPRPRPCVIPRP	0.0227
RRIRKRPPRLPRPRPRPDAKPRP	0.165
RRIRKRPPRLPRPRPRPDCRPRP	-0.00777
RRIRKRPPRLPRPRPRPDCYPRP	0.012
RRIRKRPPRLPRPRPRPDELPRP	2.45
RRIRKRPPRLPRPRPRPDEVPRP	1.1
RRIRKRPPRLPRPRPRPDFNPRP	0.0068
RRIRKRPPRLPRPRPRPDFWPRP	1.06
RRIRKRPPRLPRPRPRPDGSPRP	0.132
RRIRKRPPRLPRPRPRPDHKPRP	-0.0248
RRIRKRPPRLPRPRPRPDIEPRP	2.53
RRIRKRPPRLPRPRPRPDKYPRP	-0.309
RRIRKRPPRLPRPRPRPDLIPRP	-0.275

Sequence	shrunken log2 fold change
RRIRKRPPRLPRPRPRPDLYPRP	-0.00937
RRIRKRPPRLPRPRPRPDMLPRP	-0.0389
RRIRKRPPRLPRPRPRPDMVPRP	-0.00254
RRIRKRPPRLPRPRPRPDNAPRP	0.05
RRIRKRPPRLPRPRPRPDPEPRP	-0.0797
RRIRKRPPRLPRPRPRPDPTPRP	0.273
RRIRKRPPRLPRPRPRPDRMPRP	1.19
RRIRKRPPRLPRPRPRPDSVPRP	0.0996
RRIRKRPPRLPRPRPRPDTGPRP	-0.0244
RRIRKRPPRLPRPRPRPDVAPRP	0.0256
RRIRKRPPRLPRPRPRPDVIPRP	0.153
RRIRKRPPRLPRPRPRPDYFPRP	0.0333
RRIRKRPPRLPRPRPRPDYWPRP	0.0865
RRIRKRPPRLPRPRPRPECEPRP	0.0869
RRIRKRPPRLPRPRPRPECVPRP	1.69
RRIRKRPPRLPRPRPRPEDNPRP	0.749
RRIRKRPPRLPRPRPRPEEGPRP	0.0325
RRIRKRPPRLPRPRPRPEEPPRP	3.09
RRIRKRPPRLPRPRPRPEEVPRP	2.83
RRIRKRPPRLPRPRPRPEFDPRP	2.46
RRIRKRPPRLPRPRPRPEFEPRP	1.34
RRIRKRPPRLPRPRPRPEGRPRP	0.261
RRIRKRPPRLPRPRPRPEKQPRP	-0.0582
RRIRKRPPRLPRPRPRPEKRPRP	0.81
RRIRKRPPRLPRPRPRPEKVPRP	0.112

Sequence	shrunken log2 fold change
RRIRKRPPRLPRPRPRPEMRPRP	0.105
RRIRKRPPRLPRPRPRPENAPRP	0.116
RRIRKRPPRLPRPRPRPENSPRP	-0.131
RRIRKRPPRLPRPRPRPEQSPRP	0.94
RRIRKRPPRLPRPRPRPETGPRP	0.226
RRIRKRPPRLPRPRPRPETYPRP	-0.00198
RRIRKRPPRLPRPRPRPEVNPRP	3.37
RRIRKRPPRLPRPRPRPEWAPRP	0.604
RRIRKRPPRLPRPRPRPFDLPRP	0.0686
RRIRKRPPRLPRPRPRPFDTPRP	-0.0262
RRIRKRPPRLPRPRPRPFDYPRP	-0.121
RRIRKRPPRLPRPRPRPFETPRP	0.163
RRIRKRPPRLPRPRPRPFGYPRP	-0.0856
RRIRKRPPRLPRPRPRPFLVPRP	0.00497
RRIRKRPPRLPRPRPRPFMFPRP	-0.0278
RRIRKRPPRLPRPRPRPFPSPRP	0.175
RRIRKRPPRLPRPRPRPFQKPRP	0.0267
RRIRKRPPRLPRPRPRPFSAPRP	-0.12
RRIRKRPPRLPRPRPRPFSCPRP	-0.122
RRIRKRPPRLPRPRPRPFSDPRP	0.0546
RRIRKRPPRLPRPRPRPFSWPRP	0.0937
RRIRKRPPRLPRPRPRPFVKPRP	-0.00571
RRIRKRPPRLPRPRPRPFWIPRP	-0.414
RRIRKRPPRLPRPRPRPFWMPRP	0.0752
RRIRKRPPRLPRPRPRPFWPPRP	0.537

Sequence	shrunken log2 fold change
RRIRKRPPRLPRPRPRPGARPRP	0.962
RRIRKRPPRLPRPRPRPGAWPRP	0.364
RRIRKRPPRLPRPRPRPGDGPRP	3.56
RRIRKRPPRLPRPRPRPGDYPRP	0.559
RRIRKRPPRLPRPRPRPGELPRP	-0.012
RRIRKRPPRLPRPRPRPGFIPRP	-0.307
RRIRKRPPRLPRPRPRPGGAPRP	0.729
RRIRKRPPRLPRPRPRPGGSPRP	0.178
RRIRKRPPRLPRPRPRPGGYPRP	0.61
RRIRKRPPRLPRPRPRPGHIPRP	-0.0657
RRIRKRPPRLPRPRPRPGHWPRP	0.2
RRIRKRPPRLPRPRPRPGIDPRP	0.792
RRIRKRPPRLPRPRPRPGIFPRP	0.409
RRIRKRPPRLPRPRPRPGIKPRP	0.34
RRIRKRPPRLPRPRPRPGIMPRP	-0.206
RRIRKRPPRLPRPRPRPGKLPRP	-0.208
RRIRKRPPRLPRPRPRPGMCPRP	0.863
RRIRKRPPRLPRPRPRPGMWPRP	0.438
RRIRKRPPRLPRPRPRPGNFPRP	-0.373
RRIRKRPPRLPRPRPRPGNHPRP	0.0875
RRIRKRPPRLPRPRPRPGQIPRP	0.00502
RRIRKRPPRLPRPRPRPGRAPRP	0.786
RRIRKRPPRLPRPRPRPGRIPRP	-0.0354
RRIRKRPPRLPRPRPRPGRVPRP	0.58
RRIRKRPPRLPRPRPRPGSHPRP	0.0202

Sequence	shrunken log2 fold change
RRIRKRPPRLPRPRPRPGSLPRP	-0.0469
RRIRKRPPRLPRPRPRPGSMPRP	0.285
RRIRKRPPRLPRPRPRPGSNPRP	-0.0467
RRIRKRPPRLPRPRPRPGTHPRP	0.213
RRIRKRPPRLPRPRPRPGVEPRP	1.09
RRIRKRPPRLPRPRPRPGYLPRP	-0.319
RRIRKRPPRLPRPRPRPGYSPRP	-0.447
RRIRKRPPRLPRPRPRPHAFPRP	0.106
RRIRKRPPRLPRPRPRPHCHPRP	0.0986
RRIRKRPPRLPRPRPRPHCPPRP	-0.00424
RRIRKRPPRLPRPRPRPHCYPRP	-0.605
RRIRKRPPRLPRPRPRPHFGPRP	-0.067
RRIRKRPPRLPRPRPRPHFRPRP	-0.138
RRIRKRPPRLPRPRPRPHGTPRP	-0.0973
RRIRKRPPRLPRPRPRPHHLPRP	-0.232
RRIRKRPPRLPRPRPRPHHMPRP	-0.0738
RRIRKRPPRLPRPRPRPHHWPRP	0.706
RRIRKRPPRLPRPRPRPHKFPRP	0.0822
RRIRKRPPRLPRPRPRPHLRPRP	-0.0961
RRIRKRPPRLPRPRPRPHPDPRP	-0.0313
RRIRKRPPRLPRPRPRPHPEPRP	0.39
RRIRKRPPRLPRPRPRPHQNPRP	0.0256
RRIRKRPPRLPRPRPRPHQPPRP	0.413
RRIRKRPPRLPRPRPRPHQWPRP	0.264
RRIRKRPPRLPRPRPRPHRIPRP	0.00291

Reference: the supplement of paper PMC9112550, “Optimization of the antimicrobial peptide Bac7 by deep mutational scanning” (BMC Biology, 2022)
